Data taken from the supplement of paper PMC9112550, “Optimization of the antimicrobial peptide Bac7 by deep mutational scanning” (BMC Biology, 2022).

system: Escherichia coli TOP10; experiment: shrunken log2 fold change of peptide-encoding DNA abundance (4.5 h post-induction vs induction); higher = less antimicrobial activity (less host growth inhibition); details: time post-induction: 4.5 h; library: site-saturation at positions 5, 18, 19, 20
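Note: peptides expressed intracellularly from a pBAD plasmid library in pooled LB shake-flask culture, induced with 0.3% L-arabinose, DNA abundance read by NGS, three biological replicates, DESeq2 with apeglm shrinkage.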

First: RRIRFRPPRLPRPRPRPGVSPRP
Second: RRIRVRPPRLPRPRPRPERIPRP
The “shrunken log2 fold change” value of the first is higher: 0.323 for the first, -0.00978 for the second.

First: RRIRPRPPRLPRPRPRPWFPPRP
Second: RRIRKRPPRLPRPRPRPKRHPRP
The “shrunken log2 fold change” value of the first is lower: -0.215 for the first, 0.255 for the second.

Compared with RRIRNRPPRLPRPRPRPFIDPRP, RRIRDRPPRLPRPRPRPSPEPRP is higher in “shrunken log2 fold change” value: -0.114 for the first, 0.778 for the second.

Going from RRIRSRPPRLPRPRPRPQYVPRP to RRIRVRPPRLPRPRPRPCNIPRP, the “shrunken log2 fold change” value rises from -0.22 to 0.0254.

RRIRQRPPRLPRPRPRPKERPRP and RRIRERPPRLPRPRPRPAHNPRP are within 0.2 log units of each other in “shrunken log2 fold change” value: -0.00138 for the first, -0.0074 for the second.

RRIRGRPPRLPRPRPRPWLTPRP and RRIRFRPPRLPRPRPRPVQPPRP are within 0.2 log units of each other in “shrunken log2 fold change” value: 0.134 for the first, 0.246 for the second.

Compared with RRIRGRPPRLPRPRPRPDPHPRP, RRIRMRPPRLPRPRPRPLDIPRP is lower in “shrunken log2 fold change” value: 0.507 for the first, -0.0561 for the second.

RRIRWRPPRLPRPRPRPQCQPRP and RRIRMRPPRLPRPRPRPYPRPRP are within 0.2 log units of each other in “shrunken log2 fold change” value: 0.129 for the first, 0.112 for the second.

Going from RRIRARPPRLPRPRPRPVNTPRP to RRIRRRPPRLPRPRPRPKDGPRP, the “shrunken log2 fold change” value rises from -0.0807 to 0.378.

Compared with RRIRNRPPRLPRPRPRPCQPPRP, RRIRDRPPRLPRPRPRPGPWPRP is higher in “shrunken log2 fold change” value: -0.0231 for the first, 0.287 for the second.

Compared with RRIRTRPPRLPRPRPRPTHSPRP, RRIRSRPPRLPRPRPRPYRYPRP is lower in “shrunken log2 fold change” value: 0.384 for the first, -0.262 for the second.

First: RRIRLRPPRLPRPRPRPLFFPRP
Second: RRIRPRPPRLPRPRPRPMVQPRP
The “shrunken log2 fold change” value of the first is higher: 0.417 for the first, 0.0526 for the second.

First: RRIRCRPPRLPRPRPRPPQSPRP
Second: RRIRQRPPRLPRPRPRPEQDPRP
The “shrunken log2 fold change” value of the first is higher: 0.839 for the first, 0.311 for the second.

RRIRVRPPRLPRPRPRPQSDPRP and RRIRSRPPRLPRPRPRPGMFPRP are within 0.2 log units of each other in “shrunken log2 fold change” value: -0.0819 for the first, 0.107 for the second.

Compared with RRIRCRPPRLPRPRPRPRMIPRP, RRIRCRPPRLPRPRPRPQRVPRP is lower in “shrunken log2 fold change” value: 0.306 for the first, -0.158 for the second.

RRIRERPPRLPRPRPRPALIPRP and RRIRHRPPRLPRPRPRPCIQPRP are within 0.2 log units of each other in “shrunken log2 fold change” value: 0.129 for the first, -0.00018 for the second.

Going from RRIRGRPPRLPRPRPRPPLMPRP to RRIRERPPRLPRPRPRPTTQPRP, the “shrunken log2 fold change” value falls from 0.717 to 0.299.

Going from RRIRRRPPRLPRPRPRPMYEPRP to RRIRIRPPRLPRPRPRPHCHPRP, the “shrunken log2 fold change” value falls from -0.034 to -0.394.

Going from RRIRRRPPRLPRPRPRPDHVPRP to RRIRTRPPRLPRPRPRPSSTPRP, the “shrunken log2 fold change” value falls from 0.101 to -0.604.

RRIRMRPPRLPRPRPRPVHHPRP and RRIRLRPPRLPRPRPRPSENPRP are within 0.2 log units of each other in “shrunken log2 fold change” value: 0.00757 for the first, 0.124 for the second.

Going from RRIRPRPPRLPRPRPRPEGVPRP to RRIRVRPPRLPRPRPRPGMYPRP, the “shrunken log2 fold change” value falls from 0.103 to -0.241.

First: RRIRFRPPRLPRPRPRPICAPRP
Second: RRIRKRPPRLPRPRPRPKTSPRP
The “shrunken log2 fold change” value of the first is lower: 0.0631 for the first, 0.489 for the second.

Going from RRIRNRPPRLPRPRPRPCVIPRP to RRIRNRPPRLPRPRPRPTDWPRP, the “shrunken log2 fold change” value rises from -0.318 to 0.328.

Going from RRIRFRPPRLPRPRPRPFITPRP to RRIRYRPPRLPRPRPRPKGDPRP, the “shrunken log2 fold change” value rises from -0.918 to -0.0902.

First: RRIRWRPPRLPRPRPRPVRHPRP
Second: RRIRRRPPRLPRPRPRPRHPPRP
The “shrunken log2 fold change” value of the first is lower: 0.245 for the first, 0.524 for the second.

First: RRIRDRPPRLPRPRPRPEHPPRP
Second: RRIRHRPPRLPRPRPRPFRAPRP
The “shrunken log2 fold change” value of the first is higher: 0.054 for the first, -0.211 for the second.

First: RRIRNRPPRLPRPRPRPYNVPRP
Second: RRIRSRPPRLPRPRPRPNYMPRP
The “shrunken log2 fold change” value of the first is higher: -0.526 for the first, -0.756 for the second.

First: RRIRSRPPRLPRPRPRPQCAPRP
Second: RRIRPRPPRLPRPRPRPNSKPRP
The “shrunken log2 fold change” value of the first is higher: 0.233 for the first, -0.557 for the second.

Going from RRIRSRPPRLPRPRPRPVIFPRP to RRIRQRPPRLPRPRPRPGKEPRP, the “shrunken log2 fold change” value rises from -0.335 to 0.00212.

First: RRIRIRPPRLPRPRPRPQCHPRP
Second: RRIRNRPPRLPRPRPRPYAIPRP
The “shrunken log2 fold change” value of the first is lower: -0.594 for the first, -0.105 for the second.

Compared with RRIRARPPRLPRPRPRPKEIPRP, RRIRRRPPRLPRPRPRPRDMPRP is lower in “shrunken log2 fold change” value: 0.711 for the first, 0.186 for the second.

Compared with RRIRCRPPRLPRPRPRPLIYPRP, RRIRPRPPRLPRPRPRPTMYPRP is higher in “shrunken log2 fold change” value: -0.764 for the first, 0.125 for the second.

Going from RRIRMRPPRLPRPRPRPAPLPRP to RRIRHRPPRLPRPRPRPILDPRP, the “shrunken log2 fold change” value falls from 0.541 to 0.0523.

First: RRIRWRPPRLPRPRPRPYQIPRP
Second: RRIRKRPPRLPRPRPRPSCLPRP
The “shrunken log2 fold change” value of the first is higher: 0.0326 for the first, -0.307 for the second.

Going from RRIRYRPPRLPRPRPRPGEPPRP to RRIRSRPPRLPRPRPRPTRGPRP, the “shrunken log2 fold change” value rises from -0.0235 to 0.581.

Compared with RRIRSRPPRLPRPRPRPEVIPRP, RRIRCRPPRLPRPRPRPCQAPRP is lower in “shrunken log2 fold change” value: 0.18 for the first, -0.244 for the second.

Going from RRIRARPPRLPRPRPRPPLSPRP to RRIRERPPRLPRPRPRPDWFPRP, the “shrunken log2 fold change” value falls from 0.549 to -0.00866.

First: RRIRKRPPRLPRPRPRPKFDPRP
Second: RRIRGRPPRLPRPRPRPHWDPRP
The “shrunken log2 fold change” value of the first is lower: -0.146 for the first, 0.645 for the second.

Going from RRIRSRPPRLPRPRPRPAAFPRP to RRIRCRPPRLPRPRPRPQFYPRP, the “shrunken log2 fold change” value falls from 0.29 to -0.782.

RRIRARPPRLPRPRPRPENKPRP and RRIRARPPRLPRPRPRPDSGPRP are within 0.2 log units of each other in “shrunken log2 fold change” value: 0.31 for the first, 0.18 for the second.

RRIRYRPPRLPRPRPRPINVPRP and RRIRLRPPRLPRPRPRPSWIPRP are within 0.2 log units of each other in “shrunken log2 fold change” value: -0.208 for the first, -0.131 for the second.

RRIRARPPRLPRPRPRPWSEPRP and RRIRKRPPRLPRPRPRPLHSPRP are within 0.2 log units of each other in “shrunken log2 fold change” value: 0.0573 for the first, 0.0787 for the second.

Compared with RRIRGRPPRLPRPRPRPGVMPRP, RRIRARPPRLPRPRPRPCHPPRP is lower in “shrunken log2 fold change” value: 1.05 for the first, 0.194 for the second.

First: RRIRKRPPRLPRPRPRPQGAPRP
Second: RRIRKRPPRLPRPRPRPCTGPRP
The “shrunken log2 fold change” value of the first is higher: 0.451 for the first, 0.0143 for the second.

First: RRIRLRPPRLPRPRPRPNGFPRP
Second: RRIRVRPPRLPRPRPRPCETPRP
The “shrunken log2 fold change” value of the first is lower: -0.27 for the first, 0.0572 for the second.

In the case of RRIRPRPPRLPRPRPRPDCRPRP, the “shrunken log2 fold change” value is reported as -0.0347.
